What all share (assay): ELISA
A general note: An ELISA detects its analyte on a solid surface through an enzyme-linked reagent.

Data set [1] deals with parvalbumin (trout ('fish traut')). The following applies: fish trout suspension; 5' biotin; ELISA: suspension coated in 100 mM NaHCO3 pH 9.6, 5% CSA block, aptamer in Base Pair Aptamer Folding Buffer, washes 0.02% Tween-20 in PBS; microscopy: aptamer ….
The target in data set [2] is gelatin (collagen) (bovine skin) (UniProt P02453+P02465). The settings on record: gelatin suspension; 5' biotin; ELISA: suspension coated in 100 mM NaHCO3 pH 9.6, 5% CSA block, aptamer in Base Pair Aptamer Folding Buffer, washes 0.02% Tween-20 in PBS; microscopy: aptamer ….
The target in the next data set is hemoglobin (UniProt P69905+P68871). The following applies: 5' biotin, ELISA: suspension coated in 100 mM NaHCO3 pH 9.6, 5% CSA block, aptamer in Base Pair Aptamer Folding Buffer, washes 0.02% Tween-20 in PBS, microscopy: aptamer ….
The target of data set [3] is T1, beta-casein / beta-casomorphin-7 (UniProt P02666).
T1 sequence: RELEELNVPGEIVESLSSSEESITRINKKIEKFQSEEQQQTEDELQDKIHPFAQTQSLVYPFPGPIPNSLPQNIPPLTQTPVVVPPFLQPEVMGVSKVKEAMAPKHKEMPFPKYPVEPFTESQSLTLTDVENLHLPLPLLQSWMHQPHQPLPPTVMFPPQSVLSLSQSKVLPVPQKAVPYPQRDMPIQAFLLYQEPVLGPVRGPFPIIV
The following applies: raw milk; 5' biotin; ELISA: suspension coated in 100 mM NaHCO3 pH 9.6, 5% CSA block, aptamer in Base Pair Aptamer Folding Buffer, washes 0.02% Tween-20 in PBS; microscopy: aptamer ….

The next data set deals with gluten (gliadin) (wheat). The following applies: wheat flour suspension; 5' biotin; ELISA: suspension coated in 100 mM NaHCO3 pH 9.6, 5% CSA block, aptamer in Base Pair Aptamer Folding Buffer, washes 0.02% Tween-20 in PBS; microscopy: aptamer ….
For a further data set, the target named is T2, beta-lactoglobulin (UniProt P02754).
T2 sequence: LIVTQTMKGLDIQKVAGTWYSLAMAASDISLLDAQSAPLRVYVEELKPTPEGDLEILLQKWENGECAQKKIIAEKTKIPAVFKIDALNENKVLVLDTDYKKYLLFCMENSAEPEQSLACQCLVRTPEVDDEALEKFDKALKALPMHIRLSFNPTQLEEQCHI
The following applies: raw milk; 5' biotin; ELISA: suspension coated in 100 mM NaHCO3 pH 9.6, 5% CSA block, aptamer in Base Pair Aptamer Folding Buffer, washes 0.02% Tween-20 in PBS; microscopy: aptamer ….

Sequence of hemoglobin (P69905 2-142, chain 1 of 2): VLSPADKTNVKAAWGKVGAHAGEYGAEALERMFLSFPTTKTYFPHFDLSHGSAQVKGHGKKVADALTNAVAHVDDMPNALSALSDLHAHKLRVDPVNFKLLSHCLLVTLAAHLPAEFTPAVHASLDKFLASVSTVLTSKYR
Sequence of hemoglobin (P68871 2-147, chain 2 of 2): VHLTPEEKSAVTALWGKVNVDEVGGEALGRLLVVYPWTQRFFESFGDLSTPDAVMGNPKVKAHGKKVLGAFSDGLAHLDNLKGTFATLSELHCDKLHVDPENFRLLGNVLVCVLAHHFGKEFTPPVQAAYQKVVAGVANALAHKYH
Sequence of gelatin (collagen) (bovine skin) (P02453 whole entry, chain 1 of 2): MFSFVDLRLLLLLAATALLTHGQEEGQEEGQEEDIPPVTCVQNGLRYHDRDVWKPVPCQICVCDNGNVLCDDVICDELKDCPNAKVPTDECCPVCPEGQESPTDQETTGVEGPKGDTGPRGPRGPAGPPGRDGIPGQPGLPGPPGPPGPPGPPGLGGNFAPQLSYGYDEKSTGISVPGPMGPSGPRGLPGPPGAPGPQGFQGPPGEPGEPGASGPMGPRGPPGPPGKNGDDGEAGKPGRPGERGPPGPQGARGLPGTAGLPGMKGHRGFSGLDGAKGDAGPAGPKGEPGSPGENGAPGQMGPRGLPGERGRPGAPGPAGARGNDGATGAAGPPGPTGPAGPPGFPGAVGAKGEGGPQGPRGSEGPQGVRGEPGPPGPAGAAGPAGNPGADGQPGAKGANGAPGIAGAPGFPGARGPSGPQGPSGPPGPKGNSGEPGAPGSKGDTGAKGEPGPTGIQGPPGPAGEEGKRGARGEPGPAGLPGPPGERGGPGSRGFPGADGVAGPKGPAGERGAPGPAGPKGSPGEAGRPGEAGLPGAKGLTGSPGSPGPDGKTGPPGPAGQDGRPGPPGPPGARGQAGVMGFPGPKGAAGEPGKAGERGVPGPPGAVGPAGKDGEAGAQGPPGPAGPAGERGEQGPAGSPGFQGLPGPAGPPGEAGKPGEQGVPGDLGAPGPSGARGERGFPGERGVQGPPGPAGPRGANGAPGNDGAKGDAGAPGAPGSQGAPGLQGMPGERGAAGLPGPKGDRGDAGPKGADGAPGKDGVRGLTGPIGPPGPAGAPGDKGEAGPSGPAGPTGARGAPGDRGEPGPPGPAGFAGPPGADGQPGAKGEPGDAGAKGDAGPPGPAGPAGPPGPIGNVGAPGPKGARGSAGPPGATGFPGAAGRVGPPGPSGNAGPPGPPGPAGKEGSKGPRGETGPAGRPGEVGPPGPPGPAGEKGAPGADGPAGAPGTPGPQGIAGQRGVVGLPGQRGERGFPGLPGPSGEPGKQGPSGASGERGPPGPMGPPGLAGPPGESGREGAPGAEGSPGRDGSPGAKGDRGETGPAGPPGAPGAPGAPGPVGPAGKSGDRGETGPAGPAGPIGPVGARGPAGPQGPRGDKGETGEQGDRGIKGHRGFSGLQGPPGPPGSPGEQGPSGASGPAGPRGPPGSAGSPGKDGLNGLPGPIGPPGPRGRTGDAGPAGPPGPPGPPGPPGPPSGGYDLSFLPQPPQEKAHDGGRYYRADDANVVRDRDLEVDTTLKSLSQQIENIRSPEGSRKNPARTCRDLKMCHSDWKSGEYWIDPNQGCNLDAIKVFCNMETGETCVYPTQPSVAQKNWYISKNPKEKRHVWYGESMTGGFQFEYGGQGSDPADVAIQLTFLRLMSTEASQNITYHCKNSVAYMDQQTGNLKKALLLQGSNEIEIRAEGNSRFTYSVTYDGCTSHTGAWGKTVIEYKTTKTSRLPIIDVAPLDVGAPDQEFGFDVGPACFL
Sequence of gelatin (collagen) (bovine skin) (P02465 whole entry, chain 2 of 2): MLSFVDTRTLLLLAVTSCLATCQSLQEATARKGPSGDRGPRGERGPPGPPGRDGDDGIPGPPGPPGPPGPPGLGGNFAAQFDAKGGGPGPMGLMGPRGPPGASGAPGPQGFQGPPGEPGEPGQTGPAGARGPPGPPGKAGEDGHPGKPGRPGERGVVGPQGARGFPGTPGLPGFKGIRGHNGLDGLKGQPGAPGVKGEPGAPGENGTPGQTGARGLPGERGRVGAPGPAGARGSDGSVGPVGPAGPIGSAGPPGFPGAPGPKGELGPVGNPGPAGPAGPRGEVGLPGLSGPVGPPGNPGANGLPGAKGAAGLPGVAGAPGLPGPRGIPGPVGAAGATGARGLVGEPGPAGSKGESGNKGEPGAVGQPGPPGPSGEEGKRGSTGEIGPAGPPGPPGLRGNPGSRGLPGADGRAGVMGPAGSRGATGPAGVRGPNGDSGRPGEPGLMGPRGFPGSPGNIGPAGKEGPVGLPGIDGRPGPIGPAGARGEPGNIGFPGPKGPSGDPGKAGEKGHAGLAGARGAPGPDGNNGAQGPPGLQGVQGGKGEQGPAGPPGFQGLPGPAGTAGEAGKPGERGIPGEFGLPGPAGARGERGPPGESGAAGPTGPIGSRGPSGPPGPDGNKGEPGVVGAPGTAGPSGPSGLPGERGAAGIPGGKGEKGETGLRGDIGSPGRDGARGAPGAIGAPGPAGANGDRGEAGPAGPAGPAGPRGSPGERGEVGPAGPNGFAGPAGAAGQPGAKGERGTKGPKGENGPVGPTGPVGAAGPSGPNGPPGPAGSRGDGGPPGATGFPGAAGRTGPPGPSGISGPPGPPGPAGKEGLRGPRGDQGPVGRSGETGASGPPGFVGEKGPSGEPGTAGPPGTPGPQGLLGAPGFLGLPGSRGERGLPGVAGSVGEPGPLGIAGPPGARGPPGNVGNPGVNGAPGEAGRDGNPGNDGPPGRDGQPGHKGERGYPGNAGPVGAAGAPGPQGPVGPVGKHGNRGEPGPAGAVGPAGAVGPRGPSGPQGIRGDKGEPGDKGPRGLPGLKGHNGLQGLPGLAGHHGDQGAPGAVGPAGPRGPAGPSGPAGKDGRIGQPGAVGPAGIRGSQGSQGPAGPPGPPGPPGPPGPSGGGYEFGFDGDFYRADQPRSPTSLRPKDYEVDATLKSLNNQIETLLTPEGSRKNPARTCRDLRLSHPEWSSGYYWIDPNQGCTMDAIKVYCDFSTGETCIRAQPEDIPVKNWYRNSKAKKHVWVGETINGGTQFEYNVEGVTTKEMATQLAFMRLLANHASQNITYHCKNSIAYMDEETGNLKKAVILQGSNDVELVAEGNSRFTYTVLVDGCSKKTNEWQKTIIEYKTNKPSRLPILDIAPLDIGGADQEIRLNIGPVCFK

As for “TTTTTTTTGCCAAAGGAGGCGAGAGATAAAAGATTGCGAATCCATTCG [Par1]”, the binding signal in data set [1] stood at 0.412 OD405.

On to “TTTTTGGTTGACGGCAGTCGGCGGTATGCGCATATCGTGTTGGTA [D1]”, for which, in data set [2], the binding signal came out at 0.4 OD405.

The sequence “TTAGCGAGCTGCACACACAATGGACTCGTCATACCGTGCTGTTT [HA]” displayed a binding signal with hemoglobin of 0.471 OD405.

Take “ATCCGTCACACCTGCTCTATACACATTGTGTTTACTCCCAGTTTTTTAGACTTATGGTGTTGGCTCCCGTAT [seqU5]”: the binding signal in data set [3] is 0.51 OD405.

On to “CCAGTCTCCCGTTTACCGCGCCTACACATGTCTGAATGCC [Gli 4]”, for which the binding signal with gluten (gliadin) (wheat) came out at 0.519 OD405.

As for “CTAGGCGAAATATAGCTACAACTGTCTGAAGGCACCCAAT [Gli 1]”, the binding signal in the data set with gluten (gliadin) (wheat) was 0.577 OD405.

Take “ATCCGTCACACCTGCTCTAGACGAATATTGTATCCTCATTAGATCAAAAACGGGTGGTGTTGGCTCCCGTAT [CTx 2R (CTx 2R-2h)]”: in data set [2], the binding signal is 0.615 OD405.

Consider “CGACGATCGGACCGCAGTACCCACCCACCAGCCCCAACATCATGCCCATCCGTGTGTG [BLG14]”, for which, in the data set with beta-lactoglobulin, the binding signal turned out to be 0.394 OD405.

Regarding “ACGCACACCAGAGACAAGTAGCCCCCCAAACGCG [G15 T1]”, in the data set with hemoglobin (signal at MilliQ control level), the binding signal came out at 0.015 OD405.

As for “GGCAGGAAGACAAACACCAGGTGAGGGAGACGACGCGAGTGTTAGATGGTAGCTGTTGGTCTGTGGTGCTGT [Hb]”, in the data set with hemoglobin, the binding signal came out at 0.388 OD405.

Values taken from paper PMC11358422.
